Test results reported in patent US20210340217A1, “NOVEL PEPTIDES AND COMBINATION OF PEPTIDES FOR USE IN IMMUNOTHERAPY AGAINST OVARIAN CANCER AND OTHER CANCERS” (Immatics Biotechnologies GmbH, priority 2017, published 2021).

Key:
HLA-B*44:02 = HLA-B*44:02 (Homo sapiens, UniProt P01889, A223V/A65T/A93T/A95T/D201E/D98Y/E176V/E187L/E204Q/E69K/G107R/H137Y/K202T/L105A/L119I/N104T/N87E/Q56L/Q94N/R106L/R155S/R180D/S101N/S121R/S35A/S48T/T118I/V36M/W191S/Y140D/Y91S); assay: MHC binding assay (UV-ligand exchange, beta2m ELISA); conditions: peptide exchange yield
Excerpt: (§1) Candidate peptides for T cell based therapies according to the present invention were further tested for their MHC binding capacity (affinity). The individual peptide-MHC complexes were produced by UV-ligand exchange, where a UV-sensitive peptide is cleaved upon UV-irradiation, and exchanged with the peptide of interest as analyzed. Only peptide candidates that can effectively bind and stabilize the peptide-receptive MHC molecules prevent dissociation of the MHC complexes. To determine the yield of the exchange reaction, an ELISA was performed based on the detection of the light chain (β2m) of stabilized MHC complexes. The assay was performed as generally described in Rodenko et al. (Rodenko et al., 2006).
(§2) 96 well MAXISorp plates (NUNC) were coated over night with 2 ug/ml streptavidin in PBS at room temperature, washed 4× and blocked for 1 h at 37° C. in 2% BSA containing blocking buffer. Refolded HLA-A*02:01/MLA-001 monomers served as standards, covering the range of 15-500 ng/ml. Peptide-MHC monomers of the UV-exchange reaction were diluted 100-fold in blocking buffer. Samples were incubated for 1 h at 37° C., washed four times, incubated with 2 ug/ml HRP conjugated anti-β2m for 1h at 37° C., washed again and detected with TMB solution that is stopped with […]. Absorption was measured at 450 nm. Candidate peptides that show a high exchange yield (preferably higher than 50%, most preferred higher than 75%) are generally preferred for a generation and production of antibodies or fragments thereof, and/or T cell receptors or fragments thereof, as they show sufficient avidity to the MHC molecules and prevent dissociation of the MHC complexes.

HLA-B*07:02 = HLA-B*07:02 (Homo sapiens, UniProt P01889); assay: as above; conditions: peptide exchange yield
Excerpt: as §1, §2

| Peptide exchange (HLA-B*44:02) | Peptide exchange (HLA-B*07:02) | Substance |
| --- | --- | --- |
| “++” (>20% = ++) |  | 52 (AEFLLRIFL; listed as Homo sapiens) [compound 52] |
| “+++” (>50 = +++) |  | 53 (MEHPGKLLF; listed as Homo sapiens) [compound 53] |
| “+++” (>50 = +++) |  | 54 (AEITITTQTGY; listed as Homo sapiens) [compound 54] |
| “+++” (>50 = +++) |  | 55 (HETETRTTW; listed as Homo sapiens) [compound 55] |
|  | “++” (>20% = ++) | 326 (VPSEIDAAF; listed as Homo sapiens) [compound 326] |
|  | “+++” (>50 = +++) | 327 (SPLPVTSLI; listed as Homo sapiens) [compound 327] |
|  | “++” (>20% = ++) | 328 (EPVTSSLPNF; listed as Homo sapiens) [compound 328] |
|  | “+++” (>50 = +++) | 329 (FPAMTESGGMIL; listed as Homo sapiens) [compound 329] |
|  | “++” (>20% = ++) | 330 (FPFVTGSTEM; listed as Homo sapiens) [compound 330] |
|  | “+++” (>50 = +++) | 331 (FPHPEMTTSM; listed as Homo sapiens) [compound 331] |
|  | “+++” (>50 = +++) | 332 (FPHSEMTTL; listed as Homo sapiens) [compound 332] |
|  | “+++” (>50 = +++) | 333 (FPHSEMTTVM; listed as Homo sapiens) [compound 333] |
|  | “+++” (>50 = +++) | 334 (FPYSEVTTL; listed as Homo sapiens) [compound 334] |
|  | “++” (>20% = ++) | 335 (HPDPVGPGL; listed as Homo sapiens) [compound 335] |
|  | “++” (>20% = ++) | 336 (HPKTESATPAAY; listed as Homo sapiens) [compound 336] |
|  | “+++” (>50 = +++) | 337 (HPVETSSAL; listed as Homo sapiens) [compound 337] |
|  | “++” (>20% = ++) | 338 (HVTKTQATF; listed as Homo sapiens) [compound 338] |
|  | “+++” (>50 = +++) | 339 (LPAGTTGSLVF; listed as Homo sapiens) [compound 339] |
|  | “++” (>20% = ++) | 340 (LPEISTRTM; listed as Homo sapiens) [compound 340] |
|  | “+++” (>50 = +++) | 341 (LPLDTSTTL; listed as Homo sapiens) [compound 341] |
|  | “+++” (>50 = +++) | 342 (LPLGTSMTF; listed as Homo sapiens) [compound 342] |
|  | “++” (>20% = ++) | 343 (LPSVSGVKTTF; listed as Homo sapiens) [compound 343] |
|  | “+++” (>50 = +++) | 344 (LPTQTTSSL; listed as Homo sapiens) [compound 344] |
|  | “++” (>20% = ++) | 345 (LPTSESLVSF; listed as Homo sapiens) [compound 345] |

| Peptide exchange (HLA-B*44:02) | Peptide exchange (HLA-B*07:02) | Substance |
| --- | --- | --- |
|  | “+++” (>50 = +++) | 346 (LPWDTSTTLF; listed as Homo sapiens) [compound 346] |
|  | “++” (>20% = ++) | 347 (MPLTTGSQGM; listed as Homo sapiens) [compound 347] |
|  | “+++” (>50 = +++) | 348 (MPNSAIPFSM; listed as Homo sapiens) [compound 348] |
|  | “+++” (>50 = +++) | 349 (MPSLSEAMTSF; listed as Homo sapiens) [compound 349] |
|  | “+++” (>50 = +++) | 350 (NPSSTTTEF; listed as Homo sapiens) [compound 350] |
|  | “++” (>20% = ++) | 351 (NVLTSTPAF; listed as Homo sapiens) [compound 351] |
|  | “+++” (>50 = +++) | 352 (SPAETSTNM; listed as Homo sapiens) [compound 352] |
|  | “+++” (>50 = +++) | 353 (SPAMTTPSL; listed as Homo sapiens) [compound 353] |
|  | “+++” (>50 = +++) | 354 (SPLPVTSLL; listed as Homo sapiens) [compound 354] |
|  | “+++” (>50 = +++) | 355 (SPLVTSHIM; listed as Homo sapiens) [compound 355] |
|  | “+++” (>50 = +++) | 356 (SPNEFYFTV; listed as Homo sapiens) [compound 356] |
|  | “+++” (>50 = +++) | 357 (SPSPVPTTL; listed as Homo sapiens) [compound 357] |
|  | “+++” (>50 = +++) | 358 (SPSPVTSTL; listed as Homo sapiens) [compound 358] |
|  | “+++” (>50 = +++) | 359 (SPSTIKLTM; listed as Homo sapiens) [compound 359] |
|  | “++” (>20% = ++) | 360 (SPSVSSNTY; listed as Homo sapiens) [compound 360] |
|  | “+++” (>50 = +++) | 361 (SPTHVTQSL; listed as Homo sapiens) [compound 361] |
|  | “+++” (>50 = +++) | 362 (SPVPVTSLF; listed as Homo sapiens) [compound 362] |
|  | “++” (>20% = ++) | 363 (TAKTPDATF; listed as Homo sapiens) [compound 363] |
|  | “++” (>20% = ++) | 364 (TPLATTQRF; listed as Homo sapiens) [compound 364] |
|  | “++” (>20% = ++) | 365 (TPLATTQRFTY; listed as Homo sapiens) [compound 365] |
|  | “++” (>20% = ++) | 367 (TPSVVTEGF; listed as Homo sapiens) [compound 367] |
|  | “++” (>20% = ++) | 368 (VPTPVFPTM; listed as Homo sapiens) [compound 368] |
|  | “+++” (>50 = +++) | 369 (FPHSEMTTV; listed as Homo sapiens) [compound 369] |
|  | “+” (>10% = +) | 370 (PGGTRQSL; listed as Homo sapiens) [compound 370] |

| Peptide exchange (HLA-B*44:02) | Peptide exchange (HLA-B*07:02) | Substance |
| --- | --- | --- |
|  | “++” (>20% = ++) | 371 (LYVDGFTHW; listed as Homo sapiens) [compound 371] |
|  | “+++” (>50 = +++) | 372 (IPRNPPPTLL; listed as Homo sapiens) [compound 372] |
|  | “+++” (>50 = +++) | 373 (RPRALRDLRIL; listed as Homo sapiens) [compound 373] |
|  | “+++” (>50 = +++) | 374 (NPIGDTGVKF; listed as Homo sapiens) [compound 374] |
|  | “++” (>20% = ++) | 375 (AAASPLLLL; listed as Homo sapiens) [compound 375] |
|  | “+++” (>50 = +++) | 376 (RPRSPAGQVA; listed as Homo sapiens) [compound 376] |
|  | “+++” (>50 = +++) | 377 (RPRSPAGQVAAA; listed as Homo sapiens) [compound 377] |
|  | “+++” (>50 = +++) | 378 (RPRSPAGQVAA; listed as Homo sapiens) [compound 378] |
|  | “+++” (>50 = +++) | 379 (GPFPLVYVL; listed as Homo sapiens) [compound 379] |
|  | “+++” (>50 = +++) | 380 (IPTYGRTF; listed as Homo sapiens) [compound 380] |
|  | “++” (>20% = ++) | 381 (LPEQTPLAF; listed as Homo sapiens) [compound 381] |
|  | “+++” (>50 = +++) | 382 (SPMHDRWTF; listed as Homo sapiens) [compound 382] |
|  | “+++” (>50 = +++) | 383 (TPTKETVSL; listed as Homo sapiens) [compound 383] |
|  | “++++” (>75% = ++++) | 384 (YPGLRGSPM; listed as Homo sapiens) [compound 384] |
|  | “+++” (>50 = +++) | 385 (SPALHIGSV; listed as Homo sapiens) [compound 385] |
|  | “++” (>20% = ++) | 386 (FPFNPLDF; listed as Homo sapiens) [compound 386] |
|  | “+++” (>50 = +++) | 387 (APLKLSRTPA; listed as Homo sapiens) [compound 387] |
|  | “++” (>20% = ++) | 388 (SPAPLKLSRTPA; listed as Homo sapiens) [compound 388] |
|  | “+++” (>50 = +++) | 389 (SPGAQRTFFQL; listed as Homo sapiens) [compound 389] |
|  | “+++” (>50 = +++) | 390 (NPDLRRNVL; listed as Homo sapiens) [compound 390] |
|  | “+++” (>50 = +++) | 391 (APSTPRITTF; listed as Homo sapiens) [compound 391] |
|  | “+++” (>50 = +++) | 392 (KPIESTLVA; listed as Homo sapiens) [compound 392] |
